{
  "source": "IntAct's records for PubMed 22643122",
  "parents": {"B1": {"name": "Mitogen-activated protein kinase 4 (Arabidopsis thaliana (Mouse-ear cress)), Q39024 (parent)", "chain": "MSAESCFGSSGDQSSSKGVATHGGSYVQYNVYGNLFEVSRKYVPPLRPIGRGAYGIVCAATNSETGEEVAIKKIGNAFDNIIDAKRTLREIKLLKHMDHENVIAVKDIIKPPQRENFNDVYIVYELMDTDLHQIIRSNQPLTDDHCRFFLYQLLRGLKYVHSANVLHRDLKPSNLLLNANCDLKLGDFGLARTKSETDFMTEYVVTRWYRAPELLLNCSEYTAAIDIWSVGCILGETMTREPLFPGKDYVHQLRLITELIGSPDDSSLGFLRSDNARRYVRQLPQYPRQNFAARFPNMSAGAVDLLEKMLVFDPSRRITVDEALCHPYLAPLHDINEEPVCVRPFNFDFEQPTLTEENIKELIYRETVKFNPQDSV", "partner": "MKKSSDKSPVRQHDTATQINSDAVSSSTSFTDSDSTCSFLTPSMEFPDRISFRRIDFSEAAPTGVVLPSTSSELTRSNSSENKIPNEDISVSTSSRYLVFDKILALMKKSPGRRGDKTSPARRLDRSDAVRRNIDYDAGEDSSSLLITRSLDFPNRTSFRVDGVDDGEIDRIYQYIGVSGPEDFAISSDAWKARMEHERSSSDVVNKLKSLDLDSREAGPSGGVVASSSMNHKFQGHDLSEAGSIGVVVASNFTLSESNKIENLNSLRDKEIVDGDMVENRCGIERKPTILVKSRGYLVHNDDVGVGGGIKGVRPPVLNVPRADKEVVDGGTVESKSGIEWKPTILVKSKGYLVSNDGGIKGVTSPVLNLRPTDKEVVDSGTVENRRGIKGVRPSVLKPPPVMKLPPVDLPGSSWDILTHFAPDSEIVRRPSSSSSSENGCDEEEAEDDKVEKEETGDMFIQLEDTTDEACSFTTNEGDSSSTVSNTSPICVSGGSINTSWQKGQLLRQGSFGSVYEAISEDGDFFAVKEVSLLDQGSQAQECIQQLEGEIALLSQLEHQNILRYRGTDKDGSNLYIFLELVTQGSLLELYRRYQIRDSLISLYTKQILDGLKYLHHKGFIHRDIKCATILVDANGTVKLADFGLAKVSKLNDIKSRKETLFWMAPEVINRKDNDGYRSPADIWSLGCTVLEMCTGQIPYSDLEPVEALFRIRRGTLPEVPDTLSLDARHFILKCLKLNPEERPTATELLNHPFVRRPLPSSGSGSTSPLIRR"}},
  "data": [
    {"variants_of": "B1", "conditions": "with mp3k2_arath MEKK2, O81472", "values": [
      {"variant": "G186E", "effect of a mutation on the interaction": "disrupting interaction"}
    ]}
  ]
}
